{"source": "paper PMC3772012", "about": "“Enzyme Immobilisation on Amino-Functionalised Multi-Walled Carbon Nanotubes: Structural and Biocatalytic Characterisation” (PLoS ONE, 2013)", "substrate": "CCCCCCCCCCCCCCCC(=O)Oc1ccc([N+](=O)[O-])cc1", "assay": "purified protein", "format": "biochemical, Thermomyces lanuginosus", "details": "free enzyme, 50 mM Tris pH 9.0, 60 °C, 10-60 mM substrate, Triton X-100 and gum acacia in assay buffer"}
{"protein": "Thermomyces lanuginosus lipase (Thermomyces lanuginosus) (protein, free enzyme) EVSQDLFNQFNLFAQYSAAAYCGKNNDAPAGTNITCTGNACPEVEKADATFLYSFEDSGVGDVTGFLALDNTNKLIVLSFRGSRSIENWIGNLNFDLKEINDICSGCRGHDGFTSSWRSVADTLRQKVEDAVREHPDYRVVFTGHSLGGALATVAGADLRGNGYDIDVFSYGAPRVGNRAFAEFLTVQTGGTLYRITHTNDIVPRLPPREFGYSHSSPEYWIKSGTLVPVTRNDIVKIEGIDATGGNNQPNIPDIPAHLWYFGLIGTCL", "values": [{"measurement": "Km", "value": 3.1, "unit": "mM"}, {"measurement": "Vmax", "value": 20.1, "unit": "µmol/min/mg"}]}
